T1: hCEACAM1, human CEACAM1 ECD (35-428) (human, UniProt P13688 35-428)
T1 construct: With 24 amino acid extension containing a His-Tag; also called hEACAM1
T1 sequence: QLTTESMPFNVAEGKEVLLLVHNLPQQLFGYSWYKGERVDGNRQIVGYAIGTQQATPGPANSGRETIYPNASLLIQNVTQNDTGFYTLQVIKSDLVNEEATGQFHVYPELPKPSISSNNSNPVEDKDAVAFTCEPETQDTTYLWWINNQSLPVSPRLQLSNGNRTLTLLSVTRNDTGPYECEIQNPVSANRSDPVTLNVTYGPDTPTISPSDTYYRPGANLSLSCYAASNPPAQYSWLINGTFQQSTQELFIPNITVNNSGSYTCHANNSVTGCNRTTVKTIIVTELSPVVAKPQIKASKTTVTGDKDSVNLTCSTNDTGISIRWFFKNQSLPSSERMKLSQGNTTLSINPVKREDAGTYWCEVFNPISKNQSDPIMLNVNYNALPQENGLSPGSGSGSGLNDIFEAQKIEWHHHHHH

T2: hCEACAM6, human CEACAM6 ECD (35-327) (human, UniProt P40199 35-327)
T2 construct: With 24 amino acid extension containing a His-Tag
T2 sequence: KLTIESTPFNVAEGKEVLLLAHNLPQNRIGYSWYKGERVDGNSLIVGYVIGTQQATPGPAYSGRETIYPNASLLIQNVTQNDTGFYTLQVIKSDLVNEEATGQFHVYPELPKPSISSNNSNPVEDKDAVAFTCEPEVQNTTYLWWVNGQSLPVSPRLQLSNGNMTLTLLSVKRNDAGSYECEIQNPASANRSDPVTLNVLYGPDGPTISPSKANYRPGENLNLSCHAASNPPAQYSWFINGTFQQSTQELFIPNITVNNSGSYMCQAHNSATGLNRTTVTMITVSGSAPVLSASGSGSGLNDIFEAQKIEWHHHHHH

T3: cCEACAM1, M. fascicularis CEACAM1 ECD (35-428) (Macaca fascicularis)
T3 construct: With 24 amino acid extension containing a His-Tag; also called cynomolgus CEACAM1
T3 chain: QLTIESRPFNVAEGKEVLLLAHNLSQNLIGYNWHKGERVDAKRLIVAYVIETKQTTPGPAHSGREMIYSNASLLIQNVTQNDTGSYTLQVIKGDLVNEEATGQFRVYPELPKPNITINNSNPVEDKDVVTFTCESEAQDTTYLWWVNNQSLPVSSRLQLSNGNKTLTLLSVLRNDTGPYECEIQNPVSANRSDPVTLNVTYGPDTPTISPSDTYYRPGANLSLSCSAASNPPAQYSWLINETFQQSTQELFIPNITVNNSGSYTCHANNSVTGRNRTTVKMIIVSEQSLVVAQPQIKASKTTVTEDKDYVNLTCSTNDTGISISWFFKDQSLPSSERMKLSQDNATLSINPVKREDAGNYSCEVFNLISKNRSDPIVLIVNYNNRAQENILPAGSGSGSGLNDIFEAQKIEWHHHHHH

T4: cCEACAM6, M. fascicularis CEACAM6 ECD (35-327) (Macaca fascicularis)
T4 construct: With 24 amino acid extension containing a His-Tag; also called cynomolgus CEACAM6
T4 chain: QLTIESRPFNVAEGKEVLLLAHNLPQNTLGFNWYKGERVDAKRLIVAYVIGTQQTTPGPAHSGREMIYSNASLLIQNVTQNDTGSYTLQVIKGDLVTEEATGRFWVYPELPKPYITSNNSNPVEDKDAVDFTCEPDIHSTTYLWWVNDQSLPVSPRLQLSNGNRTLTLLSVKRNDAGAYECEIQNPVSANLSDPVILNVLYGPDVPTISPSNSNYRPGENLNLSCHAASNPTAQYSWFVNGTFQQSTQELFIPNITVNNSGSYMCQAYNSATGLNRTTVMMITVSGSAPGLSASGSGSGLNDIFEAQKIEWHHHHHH

T5: cCEACAM5, M. fascicularis CEACAM5 ECD (35-688) (Macaca fascicularis)
T5 construct: ECD followed by a 24 amino acid extension containing a His-Tag; also called cynomolgus CEACAM5; monkey CEACAM5
T5 chain: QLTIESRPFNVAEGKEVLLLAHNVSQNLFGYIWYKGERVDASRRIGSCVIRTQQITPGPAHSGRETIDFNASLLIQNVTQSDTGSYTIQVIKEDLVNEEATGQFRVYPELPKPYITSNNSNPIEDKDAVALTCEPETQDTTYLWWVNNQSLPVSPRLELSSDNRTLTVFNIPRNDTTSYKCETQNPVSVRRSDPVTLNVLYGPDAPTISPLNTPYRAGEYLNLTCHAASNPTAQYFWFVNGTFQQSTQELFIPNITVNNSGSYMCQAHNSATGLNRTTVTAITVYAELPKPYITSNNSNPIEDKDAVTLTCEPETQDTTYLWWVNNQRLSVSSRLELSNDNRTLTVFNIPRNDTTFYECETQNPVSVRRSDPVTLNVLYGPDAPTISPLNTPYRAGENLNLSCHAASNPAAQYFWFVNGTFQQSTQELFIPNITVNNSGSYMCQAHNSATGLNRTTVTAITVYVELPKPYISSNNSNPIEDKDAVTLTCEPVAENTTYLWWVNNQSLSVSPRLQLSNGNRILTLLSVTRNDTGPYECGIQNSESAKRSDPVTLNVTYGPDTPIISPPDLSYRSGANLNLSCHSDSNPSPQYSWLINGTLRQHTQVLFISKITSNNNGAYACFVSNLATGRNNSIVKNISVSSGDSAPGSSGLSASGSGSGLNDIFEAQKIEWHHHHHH

T6: cCEACAM8, M. fascicularis CEACAM8 ECD (35-332) (Macaca fascicularis)
T6 construct: With 24 amino acid extension containing a His-Tag; also called cynomolgus CEACAM8
T6 chain: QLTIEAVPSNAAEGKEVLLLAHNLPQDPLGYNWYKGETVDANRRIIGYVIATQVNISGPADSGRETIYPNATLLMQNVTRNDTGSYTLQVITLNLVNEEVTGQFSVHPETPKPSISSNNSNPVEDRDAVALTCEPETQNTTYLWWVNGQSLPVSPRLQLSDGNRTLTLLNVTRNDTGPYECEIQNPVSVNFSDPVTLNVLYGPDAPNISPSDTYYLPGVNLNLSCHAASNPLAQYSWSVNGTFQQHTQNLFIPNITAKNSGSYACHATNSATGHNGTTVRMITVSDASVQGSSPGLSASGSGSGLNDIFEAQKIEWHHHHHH


Key:
Experiment in all cases: ELISA
[1] = molecular target: T1, hCEACAM1, human CEACAM1 ECD (35-428)
[2] = molecular target: T2, hCEACAM6, human CEACAM6 ECD (35-327)
[3] = molecular target: T3, cCEACAM1, M. fascicularis CEACAM1 ECD …
[4] = molecular target: T4, cCEACAM6, M. fascicularis CEACAM6 ECD …
[5] = molecular target: T5, cCEACAM5, M. fascicularis CEACAM5 ECD …
[6] = molecular target: T6, cCEACAM8, M. fascicularis CEACAM8 ECD …

| percentage of binding compared to full binding with human CEACAM5 [1] | percentage of binding compared to full binding with human CEACAM5 [2] | percentage of binding compared to full binding with cynomolgus CEACAM5 [3] | percentage of binding compared to full binding with cynomolgus CEACAM5 [4] | percentage of binding compared to full binding with cynomolgus CEACAM5 [5] | percentage of binding compared to full binding with cynomolgus CEACAM5 [6] | Binder |
| --- | --- | --- | --- | --- | --- | --- |
| 0.3% | 0.3% | 0.3% | 0.4% | 100% | 1.2% | huMAb2-3 (antibody, human IgG1, kappa, V domains shown, Humanized MAb2, human IgG1 / Ckappa; also called MAb2_VL1cVH1a-IgG1) VH: EVQLQESGPGLVKPGGSLSLSCAASGFVFSSYDMSWVRQTPERGLEWVAYISSGGGITYAPSTVKGRFTVSRDNAKNTLYLQMNSLTSEDTAVYYCAAHYFGSSGPFAYWGQGTLVTVSS VL: DIQMTQSPASLSASVGDRVTITCRASENIFSYLAWYQQKPGKSPKLLVYNTRTLAEGVPSRFSGSGSGTDFSLTISSLQPEDFATYYCQHHYGTPFTFGSGTKLEIKR |
| 0.3% | 0.2% | 0.3% | 0.3% | 100% | 3.6% | huMAb2-1 (antibody, V domains shown, Humanized MAb2 (VL1 + VH1) fused to human IgG1 and human Ckappa constant domains; also called MAb2_VL1VH1-IgG1; MAb2VL1VH1-IgG1) VH: EVQLQESGPGLVKPGGSLSLSCAASGFVFSSYDMSWVRQTPERRLEWVAYISSGGGITYFPSTVKGRFTVSRDNAKNTLYLQMNSLTSEDTAIYYCAAHYFGSSGPFAYWGQGTLVTVSA VL: DIQMTQSPASLSASVGDTVTITCRASENIFSYLAWYQQKPGKSPKLLVYNTKTLAEGVPSRFSGSGSGTQFSLTISSLQPEDFGSYYCQHHYGTPFTFGSGTKLEIK |
| 0.3% | 0.3% | 0.3% | 0.3% | 100% | 0.9% | huMAb2-2 (antibody, V domains shown, Humanized MAb2 (VL1a + VH1a) fused to human IgG1 and human Ckappa constant domains; also called MAb2_VL1aVH1a-IgG1; MA2_VL1aVH1a-IgG1) VH: EVQLQESGPGLVKPGGSLSLSCAASGFVFSSYDMSWVRQTPERGLEWVAYISSGGGITYAPSTVKGRFTVSRDNAKNTLYLQMNSLTSEDTAVYYCAAHYFGSSGPFAYWGQGTLVTVSS VL: DIQMTQSPASLSASVGDRVTITCRASENIFSYLAWYQQKPGKSPKLLVYNTKTLAEGVPSRFSGSGSGTDFSLTISSLQPEDFATYYCQHHYGTPFTFGSGTKLEIK |
| 0.3% | 0.3% | 0.3% | 0.3% | 100% | 3.2% | huMAb2-4 (antibody, human IgG1, kappa, V domains shown, Humanized MAb2, human IgG1 / Ckappa; also called MAb2_VL1d VH1-IgG1; MAb2_VL1dVH1-IgG1) VH: EVQLQESGPGLVKPGGSLSLSCAASGFVFSSYDMSWVRQTPERRLEWVAYISSGGGITYFPSTVKGRFTVSRDNAKNTLYLQMNSLTSEDTAIYYCAAHYFGSSGPFAYWGQGTLVTVSA VL: DIQMTQSPASLSASVGDTVTITCRASENIFSYLAWYQQKPGKSPKLLVYNTRTLAEGVPSRFSGSGSGTQFSLTISSLQPEDFGSYYCQHHYGTPFTFGSGTKLEIKR |
| 0.3% | 0.3% | 0.2% | 0.3% | 100% | 1.2% | chMAb2 (antibody, human IgG1, kappa, V domains shown, Chimeric, human IgG1, Ck isotype; also called MAb2-IgG1; chimeric MAb2) VH: EVQLQESGGVLVKPGGSLKLSCAASGFVFSSYDMSWVRQTPEKRLEWVAYISSGGGITYFPDTVQGRFTVSRDNAKNTLYLQMNSLKSEDTAIYYCAAHYFGSSGPFAYWGQGTLVTVSA VL: DIQMTQSPASLSASVGETVTITCRASENIFSYLAWYQQKQGKSPQLLVYNTKTLAEGVPSRFSGSGSGTQFSLKINSLQPEDFGSYYCQHHYGTPFTFGSGTKLEIKR |

Source: patent US20220340682A1 (Sanofi, published 2022)
